Reference: US11819552B2, “Antibody-drug conjugates targeting uPARAP” (RIGSHOSPITALET, priority 2016, dated 2023)
“Also recorded” adds a separate entry of the source.

Assays:
uPARAP = biological target: T1, uPARAP (Homo sapiens, UniProt Q9UBG0); assay: Antibody reactivity with uPARAP; format: binding; conditions: listed as 2h9
T1 sequence (Q9UBG0 31-1479): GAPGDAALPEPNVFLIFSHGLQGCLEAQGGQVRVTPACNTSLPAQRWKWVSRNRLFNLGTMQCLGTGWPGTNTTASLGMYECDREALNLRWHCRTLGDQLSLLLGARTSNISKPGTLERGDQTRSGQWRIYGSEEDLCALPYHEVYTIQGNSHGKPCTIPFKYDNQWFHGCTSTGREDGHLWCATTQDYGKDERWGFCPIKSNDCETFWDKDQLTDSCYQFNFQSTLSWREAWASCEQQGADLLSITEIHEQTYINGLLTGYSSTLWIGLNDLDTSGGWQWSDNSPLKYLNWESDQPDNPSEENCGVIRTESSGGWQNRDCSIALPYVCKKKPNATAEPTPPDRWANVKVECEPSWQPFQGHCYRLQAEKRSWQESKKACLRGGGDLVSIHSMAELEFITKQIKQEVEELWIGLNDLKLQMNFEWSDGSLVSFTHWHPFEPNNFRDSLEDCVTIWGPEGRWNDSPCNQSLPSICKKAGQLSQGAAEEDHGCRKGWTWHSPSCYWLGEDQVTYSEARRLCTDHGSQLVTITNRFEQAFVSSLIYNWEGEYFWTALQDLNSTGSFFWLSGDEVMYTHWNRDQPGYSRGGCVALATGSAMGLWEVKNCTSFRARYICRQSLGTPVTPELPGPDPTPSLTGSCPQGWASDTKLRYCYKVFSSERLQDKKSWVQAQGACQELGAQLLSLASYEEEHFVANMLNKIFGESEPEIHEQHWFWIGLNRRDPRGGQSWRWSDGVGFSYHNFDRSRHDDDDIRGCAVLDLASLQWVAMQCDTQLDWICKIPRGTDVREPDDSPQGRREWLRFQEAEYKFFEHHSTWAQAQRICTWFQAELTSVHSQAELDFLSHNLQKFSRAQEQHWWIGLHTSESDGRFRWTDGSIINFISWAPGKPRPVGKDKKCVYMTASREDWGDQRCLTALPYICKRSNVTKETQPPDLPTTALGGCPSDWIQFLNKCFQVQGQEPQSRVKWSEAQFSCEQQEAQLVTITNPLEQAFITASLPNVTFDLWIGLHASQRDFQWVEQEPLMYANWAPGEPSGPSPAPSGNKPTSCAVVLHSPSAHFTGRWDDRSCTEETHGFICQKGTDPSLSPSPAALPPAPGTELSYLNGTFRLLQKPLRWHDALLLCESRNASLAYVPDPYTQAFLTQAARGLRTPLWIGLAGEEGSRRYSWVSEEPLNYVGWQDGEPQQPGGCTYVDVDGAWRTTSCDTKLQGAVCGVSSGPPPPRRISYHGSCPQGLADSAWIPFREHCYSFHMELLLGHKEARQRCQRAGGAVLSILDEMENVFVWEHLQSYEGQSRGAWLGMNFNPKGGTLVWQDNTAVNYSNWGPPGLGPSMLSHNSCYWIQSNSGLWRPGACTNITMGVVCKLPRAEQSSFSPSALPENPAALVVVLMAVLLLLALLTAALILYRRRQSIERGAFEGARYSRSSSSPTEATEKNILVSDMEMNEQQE

[1] = biological target: T2, soluble recombinant protein consisting of the three N-terminal domains of uPARAP (CysR, FN-II and CTLD-1) (Homo sapiens, UniProt Q9UBG0); conditions: immobilized 2h9, soluble three-domain protein; Jürgensen et al., 2011; cited from earlier work
T2 construct: A soluble recombinant protein consisting of the three n-terminal domains of uPARAP (CysR, FN-II and CTLD-1)
T2 sequence (Q9UBG0 41-360 limits assumed): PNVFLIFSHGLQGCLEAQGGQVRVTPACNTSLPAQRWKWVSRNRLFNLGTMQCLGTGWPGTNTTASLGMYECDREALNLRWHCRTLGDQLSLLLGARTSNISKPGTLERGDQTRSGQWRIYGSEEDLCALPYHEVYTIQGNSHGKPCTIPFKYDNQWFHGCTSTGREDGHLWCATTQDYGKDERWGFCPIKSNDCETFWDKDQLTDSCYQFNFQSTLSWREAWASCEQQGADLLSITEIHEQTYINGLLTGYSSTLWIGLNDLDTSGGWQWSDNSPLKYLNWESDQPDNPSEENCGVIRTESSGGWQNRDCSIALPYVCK

B1: mAb 2h9: mouse monoclonal IgG1k anti-uPARAP antibody clone 2.h.9: F12, produced by hybridoma cell culture (protein)
light: DIQMTQSPASQSASLGESVTITCLASQTIGTWLAWYQQKPGKSPQLLIYAATTLTDGVPSRFSGAGSGTKFSLKISSLQAEDFASYFCQEFFSTPFTFGSGTKLELKRADAAPTVSIFPPSSEQLTSGGASVVCFLNNFYPKDINVKWKIDGGERQNGVLNSWTDQDSKDSTYSMSSTLTLTKDEYERHNSYTCEATHKTSTSPIVKSFNRNEC
heavy: QVQLQQPGTELVRPGLSVKLSCKASGYTFTSYWMNWVKQRPGQGLEWIGMIHPSNDEKRINQKFKDKATLTVDKFSSTVYMQVSSPTSEDSAVYYCARGGGDYVGDYALDFWGQGTSVTVSSAKTTPPSVYPLAPGSAAQTNSMVTLGCLVKGYFPEPVTVTWNSGSLSSGVHTFPAVLQSDLYTLSSSVTVPSSTWPSETVTCNVAHPASSTKVDKKIVPRDCGCKPCICTVPEVSSVFIFPPKPKDVLTITLTPKVTCVVVDISKDDPEVQFSWFVDDVEVHTAQTQPREEQFNSTFRSVSELPIMHQDWLNGKEFKCRVNSAAFPAPIEKTISKTKGRPKAPQVYTIPPPKEQMAKDKVSLTCMITDFFPEDITVEWQWNGQPAENYKNTQPIMDTDGSYFIYSKLNVQKSNWEAGNTFTCSVLHEGLHNHHTEKSLSHSPGK
In the case of B1, the “Reactivity with human uPARAP” value (uPARAP) is given as “reactive against both human and murine uPARAP; also recorded: reacts with both human and mouse uPARAP” and the “Binding in BIAcore setup” value [1] is given as “binds to immobilized 2h9”.
